From patent US20130210888

What was measured:
[1] = system: CoREST del 2 (aa 293-482), His-tagged
[2] = system: His-tagged full length (1-482aa) human CoREST

## histidine epitope-tagged LSD1 (HIS-LSD1), full length (1-851aa) human LSD1
[1]
  stimulation of LSD1 demethylation activity (nucleosomal substrates): sufficient to mediate stimulation of LSD1 demethylation activity to a level that is comparable to that of the wildtype CoREST
[2]
  demethylation of nucleosomal substrates by LSD1 (Western blot with K4-H3 methylation-specific antibodies): addition of CoREST to the demethylation reaction restored the ability of recombinant LSD1 to demethylate nucleosomal substrates
